Test results taken from patent US20060257938A1, “Method of screening for drugs that block ligand binding to a lipid binding protein” (priority 2005, published 2006).

Columns and labels:
Type in all cases: binding
[1] = Probe fluorescence ratio response to arachidonic acid relative to ADIFAB2; conditions: arachidonic acid; response relative to ADIFAB2
How it was run: (§1)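 Each fatty acid's response was expressed relative to ADIFAB2, the rI-FABP-L72A probe, as ΔR/ΔRreference. ΔR is the change in the background-corrected two-wavelength intensity ratio R=Fλ1/Fλ2 from its analyte-free baseline R0. Emission was read near about 420-480 nm for unbound and about 495-580 nm for FFA-bound probe.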

[2] = Probe fluorescence ratio response to linolenic acid relative to ADIFAB2; conditions: response relative to ADIFAB2
How it was run: as §1

[3] = Probe fluorescence ratio response to linoleic acid relative to ADIFAB2; conditions: response relative to ADIFAB2
How it was run: as §1

[4] = Probe fluorescence ratio response to oleic acid relative to ADIFAB2; conditions: response relative to ADIFAB2
How it was run: as §1

[5] = Probe fluorescence ratio response to palmitic acid relative to ADIFAB2; conditions: response relative to ADIFAB2
How it was run: as §1

Row | Molecule | DR/DR AA [1] | DR/DR LNA [2] | DR/DR LA [3] | DR/DR OA [4] | DR/DR PA [5]
1 | 102G, 72A (protein, listed as Rattus norvegicus, PEPTIDE (1)...(131) wild-type rat intestinal fatty acid binding protein) AFDGTWKVDRNENYEKFMEKMGINVVKRKLGAHDNLKLTITQEGNKFTVKESSNFRNIDVVFELGVDFAYSAADGTELTGTWTMEGNKLVGKFKRVDNGKEGIAVREISGNELIQTYTYEGVEAKRIFKKE | 0.63 | 0.38 | 0.78 | 0.65 | 0.36
2 | 126V, 72A (protein, listed as Rattus norvegicus, PEPTIDE (1)...(131) wild-type rat intestinal fatty acid binding protein) AFDGTWKVDRNENYEKFMEKMGINVVKRKLGAHDNLKLTITQEGNKFTVKESSNFRNIDVVFELGVDFAYSAADGTELTGTWTMEGNKLVGKFKRVDNGKELIAVREISGNELIQTYTYEGVEAKVIFKKE | 0.42 | 0.42 | 0.45 | 0.33 | 0.34
3 | 126M, 72A (protein, listed as Rattus norvegicus, PEPTIDE (1)...(131) wild-type rat intestinal fatty acid binding protein) AFDGTWKVDRNENYEKFMEKMGINVVKRKLGAHDNLKLTITQEGNKFTVKESSNFRNIDVVFELGVDFAYSAADGTELTGTWTMEGNKLVGKFKRVDNGKELIAVREISGNELIQTYTYEGVEAKMIFKKE | 0.32 | 0.28 | 0.31 | 0.24 | 0.29
4 | 126H, 72A (protein, listed as Rattus norvegicus, PEPTIDE (1)...(131) wild-type rat intestinal fatty acid binding protein) AFDGTWKVDRNENYEKFMEKMGINVVKRKLGAHDNLKLTITQEGNKFTVKESSNFRNIDVVFELGVDFAYSAADGTELTGTWTMEGNKLVGKFKRVDNGKELIAVREISGNELIQTYTYEGVEAKHIFKKE | 0.20 | 0.46 | 0.46 | 0.43 | 0.32
5 | 11Y1, 72A (protein, listed as Rattus norvegicus, PEPTIDE (1)...(131) wild-type rat intestinal fatty acid binding protein) AFDGTWKVDRYENYEKFMEKMGINVVKRKLGAHDNLKLTITQEGNKFTVKESSNFRNIDVVFELGVDFAYSAADGTELTGTWTMEGNKLVGKFKRVDNGKELIAVREISGNELIQTYTYEGVEAKRIFKKE | 0.52 | 0.31 | 0.33 | 0.16 | 0.30
6 | 14A, 72A (protein, listed as Rattus norvegicus, PEPTIDE (1)...(131) wild-type rat intestinal fatty acid binding protein) AFDGTWKVDRNENAEKFMEKMGINVVKRKLGAHDNLKLTITQEGNKFTVKESSNFRNIDVVFELGVDFAYSAADGTELTGTWTMEGNKLVGKFKRVDNGKELIAVREISGNELIQTYTYEGVEAKRIFKKE | 0.53 | 0.56 | 0.56 | 0.36 | 0.24
7 | 126A, 72A (protein, listed as Rattus norvegicus, PEPTIDE (1)...(131) wild-type rat intestinal fatty acid binding protein) AFDGTWKVDRNENYEKFMEKMGINVVKRKLGAHDNLKLTITQEGNKFTVKESSNFRNIDVVFELGVDFAYSAADGTELTGTWTMEGNKLVGKFKRVDNGKELIAVREISGNELIQTYTYEGVEAKAIFKKE | 1.27 | 1.36 | 1.32 | 1.38 | 1.22
8 | 126I, 72A (protein, listed as Rattus norvegicus, PEPTIDE (1)...(131) wild-type rat intestinal fatty acid binding protein) AFDGTWKVDRNENYEKFMEKMGINVVKRKLGAHDNLKLTITQEGNKFTVKESSNFRNIDVVFELGVDFAYSAADGTELTGTWTMEGNKLVGKFKRVDNGKELIAVREISGNELIQTYTYEGVEAKIIFKKE | 0.45 | 0.43 | 0.43 | 0.34 | 0.38
9 | 14D, 72A (protein, listed as Rattus norvegicus, PEPTIDE (1)...(131) wild-type rat intestinal fatty acid binding protein) AFDGTWKVDRNENDEKFMEKMGINVVKRKLGAHDNLKLTITQEGNKFTVKESSNFRNIDVVFELGVDFAYSAADGTELTGTWTMEGNKLVGKFKRVDNGKELIAVREISGNELIQTYTYEGVEAKRIFKKE | 0.46 | 0.51 | 0.53 | 0.34 | 0.28
10 | 126F, 72A (protein, listed as Rattus norvegicus, PEPTIDE (1)...(131) wild-type rat intestinal fatty acid binding protein) AFDGTWKVDRNENYEKFMEKMGINVVKRKLGAHDNLKLTITQEGNKFTVKESSNFRNIDVVFELGVDFAYSAADGTELTGTWTMEGNKLVGKFKRVDNGKELIAVREISGNELIQTYTYEGVEAKFIFKKE | 0.52 | 0.53 | 0.51 | 0.43 | 0.34
11 | 126L, 72A (protein, listed as Rattus norvegicus, PEPTIDE (1)...(131) wild-type rat intestinal fatty acid binding protein) AFDGTWKVDRNENYEKFMEKMGINVVKRKLGAHDNLKLTITQEGNKFTVKESSNFRNIDVVFELGVDFAYSAADGTELTGTWTMEGNKLVGKFKRVDNGKELIAVREISGNELIQTYTYEGVEAKLIFKKE | 0.66 | 0.66 | 0.64 | 0.55 | 0.38
12 | 11Y1, L72A (protein, listed as Rattus norvegicus, PEPTIDE (1)...(131) wild-type rat intestinal fatty acid binding protein) AFDGTWKVDRYENYEKFMEKMGINVVKRKLGAHDNLKLTITQEGNKFTVKESSNFRNIDVVFELGVDFAYSAADGTELTGTWTMEGNKLVGKFKRVDNGKELIAVREISGNELIQTYTYEGVEAKRIFKKE | 0.49 | 0.33 | 0.32 | 0.16 | 0.25
13 | 126E, 72A (protein, listed as Rattus norvegicus, PEPTIDE (1)...(131) wild-type rat intestinal fatty acid binding protein) AFDGTWKVDRNENYEKFMEKMGINVVKRKLGAHDNLKLTITQEGNKFTVKESSNFRNIDVVFELGVDFAYSAADGTELTGTWTMEGNKLVGKFKRVDNGKELIAVREISGNELIQTYTYEGVEAKEIFKKE | 0.25 | 0.32 | 0.34 | 0.30 | 0.21
14 | 126D, 72A (protein, listed as Rattus norvegicus, PEPTIDE (1)...(131) wild-type rat intestinal fatty acid binding protein) AFDGTWKVDRNENYEKFMEKMGINVVKRKLGAHDNLKLTITQEGNKFTVKESSNFRNIDVVFELGVDFAYSAADGTELTGTWTMEGNKLVGKFKRVDNGKELIAVREISGNELIQTYTYEGVEAKDIFKKE | 0.44 | 0.56 | 0.59 | 0.64 | 0.37
15 | 102H, 72A (protein, listed as Rattus norvegicus, PEPTIDE (1)...(131) wild-type rat intestinal fatty acid binding protein) AFDGTWKVDRNENYEKFMEKMGINVVKRKLGAHDNLKLTITQEGNKFTVKESSNFRNIDVVFELGVDFAYSAADGTELTGTWTMEGNKLVGKFKRVDNGKEHIAVREISGNELIQTYTYEGVEAKRIFKKE | 0.52 | 0.63 | 0.65 | 0.66 | 0.37
